Positions of bridges follow the written chain, without caps; N, C: chain ends. Chains are numbered I, II in the order given. No end group written: not given here.
T1: ψPDK peptide (ALSTER), non-TAT conjugated
T1 sequence: ALSTER

B1: ψPDK-Cs-sC-TAT (ψPDK linked to TAT47-57 by a disulfide bond) (peptide)
peptide: ALSTERC-NH2
chain: YGRKKRRQRRRC-NH2
modifications: disulfide I:7-II:12; N-terminus assumed
SMILES: CC(C)C[C@H](NC(=O)[C@H](C)N)C(=O)N[C@@H](CO)C(=O)N[C@H](C(=O)N[C@@H](CCC(=O)O)C(=O)N[C@@H](CCCNC(=N)N)C(=O)N[C@@H](CSSC[C@H](NC(=O)[C@H](CCCNC(=N)N)NC(=O)[C@H](CCCNC(=N)N)NC(=O)[C@H](CCCNC(=N)N)NC(=O)[C@H](CCC(N)=O)NC(=O)[C@H](CCCNC(=N)N)NC(=O)[C@H](CCCNC(=N)N)NC(=O)[C@H](CCCCN)NC(=O)[C@H](CCCCN)NC(=O)[C@H](CCCNC(=N)N)NC(=O)CNC(=O)[C@@H](N)Cc1ccc(O)cc1)C(N)=O)C(N)=O)[C@@H](C)O

Columns and labels:
[1] = test system: T1, ψPDK peptide (ALSTER), non-TAT conjugated
[2] = test system: ψPDK-Cs-sC-TAT (ψPDK linked to TAT47-57 by a disulfide bond)
[3] = biological target: rat δPKC (endogenous, in perfused rat hearts) (rat) (UniProt P09215); assay: cell-based or functional assay
rat δPKC (endogenous, in perfused rat hearts) (rat), sequence (P09215 whole entry, stated change not applied, the tested form may be a part): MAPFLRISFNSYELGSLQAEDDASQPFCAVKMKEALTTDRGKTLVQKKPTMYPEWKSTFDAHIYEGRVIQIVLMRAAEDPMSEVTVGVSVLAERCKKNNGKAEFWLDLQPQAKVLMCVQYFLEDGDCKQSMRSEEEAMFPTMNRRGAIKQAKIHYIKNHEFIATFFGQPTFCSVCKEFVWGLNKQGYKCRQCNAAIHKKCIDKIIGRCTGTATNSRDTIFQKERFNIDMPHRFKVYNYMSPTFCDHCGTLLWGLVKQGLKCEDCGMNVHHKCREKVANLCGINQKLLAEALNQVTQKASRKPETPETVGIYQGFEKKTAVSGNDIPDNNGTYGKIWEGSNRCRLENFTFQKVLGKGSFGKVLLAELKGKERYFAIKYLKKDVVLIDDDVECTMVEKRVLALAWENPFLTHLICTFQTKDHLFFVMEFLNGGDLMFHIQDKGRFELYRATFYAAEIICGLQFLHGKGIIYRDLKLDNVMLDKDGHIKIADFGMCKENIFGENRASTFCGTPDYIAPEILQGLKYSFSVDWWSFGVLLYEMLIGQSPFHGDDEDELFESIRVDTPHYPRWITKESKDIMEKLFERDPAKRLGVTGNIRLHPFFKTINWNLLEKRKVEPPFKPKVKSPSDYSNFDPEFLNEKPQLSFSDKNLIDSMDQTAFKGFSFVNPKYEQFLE

[4] = biological target: rat δPKC (endogenous, in perfused rat hearts) (rat), P09215; assay: cell-based or functional assay
rat δPKC (endogenous, in perfused rat hearts) (rat), P09215, sequence (P09215 whole entry, stated change not applied, the tested form may be a part): as above

Molecule | CPK (u/L) [3] [u/L] | p-JNK/total JNK [3] | other results
human recombinant δPKC (Invitrogen) | – | – | in vitro phosphorylation of Drp1 by δPKC [1]: ψPDK did not affect Drp1 phosphorylation; δPKC phosphorylation of PDK (in vitro kinase assay) [1]: ψPDK inhibited δPKC phosphorylation of PDK by ˜30%
mouse δPKC (endogenous, in fibroblasts from wild-type mice) | – | – | MARCKS phosphorylation in wild-type fibroblasts [2]: increased MARCKS phosphorylation relative to the control peptide
p192 (AASTER), TAT-conjugated (peptide) | 1270 | 0.7 | –
p193 (ALATER), TAT-conjugated (peptide) | 1160 | 0.7 | –
p194 (ALSAER), TAT-conjugated (peptide) | 886 | 0.6 | –
p195 (ALSTAR), TAT-conjugated (peptide) | 913 | 0.7 | –
p196 (ALSTEA), TAT-conjugated (peptide) | 926 | 0.9 | –
p197 (ALST(p)ER), TAT-conjugated (peptide) | 803 | 0.7 | –
p198 (ALS(p)TER), TAT-conjugated (peptide) | 1170 | 0.9 | –
p199 (ALS(p)T(p)ER), TAT-conjugated (peptide) | 842 | 0.6 | –
rat δPKC (endogenous, in perfused rat hearts) | – | – | I/R-induced MARCKS phosphorylation in hearts [2]: an increase in I/R-induced MARCKS phosphorylation was observed in the presence of ψPDK, as compared with control peptide; phosphorylation of PDK2 and of the E1 subunit of PDH after I/R (2-D IEF) [2]: the phosphorylation of those two enzymes (shown by a shift to acidic pH by 2-D IEF analysis) did not occur in the presence of either ψPDK or in the presence of δV1-1
B1 | – | – | CPK (u/L) [4]: 335 u/L; p-JNK/total JNK [4]: 0.4; δPKC association with the mitochondria after I/R [4]: 2 fold
